Measurements reported in patent publication US20090149389A1 (PURDUE RESEARCH FOUNDATION, published 2009).

Experiments:
Test in all cases: cell-based or functional assay
CHK1 (h) = target: T1, CHK1 (h) (human (h), UniProt O14757 1-476)
T1 sequence (looked up): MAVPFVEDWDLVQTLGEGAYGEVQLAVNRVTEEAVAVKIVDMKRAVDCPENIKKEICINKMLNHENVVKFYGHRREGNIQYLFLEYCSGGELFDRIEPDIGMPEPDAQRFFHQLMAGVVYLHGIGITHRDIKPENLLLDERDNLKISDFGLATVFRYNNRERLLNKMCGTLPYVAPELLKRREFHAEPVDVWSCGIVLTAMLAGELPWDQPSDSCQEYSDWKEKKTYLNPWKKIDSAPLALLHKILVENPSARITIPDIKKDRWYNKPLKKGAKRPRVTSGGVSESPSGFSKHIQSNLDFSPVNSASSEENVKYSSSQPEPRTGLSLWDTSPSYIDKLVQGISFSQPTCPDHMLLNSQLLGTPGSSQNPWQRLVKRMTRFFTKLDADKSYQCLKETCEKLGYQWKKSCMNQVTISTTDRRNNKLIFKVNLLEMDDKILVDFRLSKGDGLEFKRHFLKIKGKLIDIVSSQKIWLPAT

MEKI (h) = MEKI (h) (human (h), UniProt Q02750 1-393)
JAK3 (h) = JAK3 (h) (human (h), UniProt P52333 781-1124, limits assumed)
Tie2 (h) = Tie2 (h) (human (h), UniProt Q02763 771-1124, limits assumed)
PhKγ2 (h) = target: T2, PhKγ2 (h) (human (h), UniProt P15735 1-406)
T2 sequence (looked up): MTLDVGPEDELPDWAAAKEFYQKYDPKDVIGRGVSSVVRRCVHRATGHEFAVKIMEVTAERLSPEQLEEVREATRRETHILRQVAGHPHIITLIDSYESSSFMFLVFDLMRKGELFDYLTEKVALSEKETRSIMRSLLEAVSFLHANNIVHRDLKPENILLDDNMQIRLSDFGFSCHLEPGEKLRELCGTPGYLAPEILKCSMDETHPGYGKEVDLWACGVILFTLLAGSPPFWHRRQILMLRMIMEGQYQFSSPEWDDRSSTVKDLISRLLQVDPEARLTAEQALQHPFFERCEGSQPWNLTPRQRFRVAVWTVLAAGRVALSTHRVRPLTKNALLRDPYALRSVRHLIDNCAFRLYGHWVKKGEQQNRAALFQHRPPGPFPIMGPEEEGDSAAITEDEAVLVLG

FGFR1 (h) = FGFR1 (h) (human (h), UniProt P11362 456-765, limits assumed)
MSK2 (h) = MSK2 (h) (human (h), UniProt O75676 1-772, limits assumed)
DYRK2 (h) = target: T3, DYRK2 (h) (human (h), UniProt Q92630 1-601, limits assumed)
T3 sequence (looked up): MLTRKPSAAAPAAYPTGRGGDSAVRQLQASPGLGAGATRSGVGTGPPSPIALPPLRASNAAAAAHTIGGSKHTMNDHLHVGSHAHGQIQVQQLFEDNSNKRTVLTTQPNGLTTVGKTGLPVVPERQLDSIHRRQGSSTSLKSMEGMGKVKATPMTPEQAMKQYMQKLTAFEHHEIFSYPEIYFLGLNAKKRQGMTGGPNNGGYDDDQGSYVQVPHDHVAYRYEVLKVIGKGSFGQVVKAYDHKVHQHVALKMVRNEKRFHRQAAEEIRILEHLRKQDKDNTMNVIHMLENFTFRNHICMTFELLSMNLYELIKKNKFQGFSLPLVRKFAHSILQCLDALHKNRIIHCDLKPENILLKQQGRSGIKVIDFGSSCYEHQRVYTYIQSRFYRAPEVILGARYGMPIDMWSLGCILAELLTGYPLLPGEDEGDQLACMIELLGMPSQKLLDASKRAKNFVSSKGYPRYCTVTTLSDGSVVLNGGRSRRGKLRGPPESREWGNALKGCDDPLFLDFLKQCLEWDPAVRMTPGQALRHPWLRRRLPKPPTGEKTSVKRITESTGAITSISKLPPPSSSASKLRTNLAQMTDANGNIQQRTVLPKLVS

Rsk2 (h) = Rsk2 (h) (human (h), UniProt P51812 1-740)
TrkA (h) = TrkA (h) (human (h), UniProt P04629 441-796, limits assumed)
CKIB (h) = CKIB (h) (human (h))
ASK1 (h) = ASK1 (h) (human (h), UniProt Q99683 649-946, limits assumed)
PKCδ (h) = PKCδ (h) (human (h), UniProt Q05655 1-676)
MSK1 (h) = MSK1 (h) (human (h), UniProt O75582 1-802)
MSK1 (h), sequence (O75582 whole entry): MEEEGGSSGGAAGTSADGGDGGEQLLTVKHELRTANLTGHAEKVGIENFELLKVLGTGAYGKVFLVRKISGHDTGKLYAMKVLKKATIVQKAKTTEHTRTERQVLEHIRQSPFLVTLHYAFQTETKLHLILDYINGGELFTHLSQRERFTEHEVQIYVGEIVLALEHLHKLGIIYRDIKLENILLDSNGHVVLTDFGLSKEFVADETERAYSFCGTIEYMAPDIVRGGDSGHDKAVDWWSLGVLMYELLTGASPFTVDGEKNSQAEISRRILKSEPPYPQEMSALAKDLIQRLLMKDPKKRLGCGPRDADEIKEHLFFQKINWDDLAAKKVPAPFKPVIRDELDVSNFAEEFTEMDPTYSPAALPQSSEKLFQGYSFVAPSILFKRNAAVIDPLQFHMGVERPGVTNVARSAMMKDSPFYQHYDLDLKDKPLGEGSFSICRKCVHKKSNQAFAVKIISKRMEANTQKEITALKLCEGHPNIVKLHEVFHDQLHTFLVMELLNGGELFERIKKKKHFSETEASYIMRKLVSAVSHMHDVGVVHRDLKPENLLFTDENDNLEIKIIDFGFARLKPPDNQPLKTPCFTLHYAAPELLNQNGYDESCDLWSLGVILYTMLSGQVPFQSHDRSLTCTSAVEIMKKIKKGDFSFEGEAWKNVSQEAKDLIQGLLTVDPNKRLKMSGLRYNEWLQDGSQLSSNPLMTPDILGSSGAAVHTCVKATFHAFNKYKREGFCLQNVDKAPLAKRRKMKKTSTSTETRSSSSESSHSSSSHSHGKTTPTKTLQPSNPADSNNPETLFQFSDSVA

JAK3 (h), sequence (P52333 781-1124 limits assumed): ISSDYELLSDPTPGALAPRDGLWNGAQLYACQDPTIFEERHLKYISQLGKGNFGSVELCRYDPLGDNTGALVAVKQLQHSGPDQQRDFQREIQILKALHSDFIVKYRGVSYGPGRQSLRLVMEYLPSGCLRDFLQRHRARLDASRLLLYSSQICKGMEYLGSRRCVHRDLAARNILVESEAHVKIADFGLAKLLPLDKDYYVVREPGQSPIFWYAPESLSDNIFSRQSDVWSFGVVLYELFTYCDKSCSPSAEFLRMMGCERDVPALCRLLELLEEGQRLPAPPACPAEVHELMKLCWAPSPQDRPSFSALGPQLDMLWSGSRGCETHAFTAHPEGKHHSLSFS
MSK2 (h), sequence (O75676 whole entry): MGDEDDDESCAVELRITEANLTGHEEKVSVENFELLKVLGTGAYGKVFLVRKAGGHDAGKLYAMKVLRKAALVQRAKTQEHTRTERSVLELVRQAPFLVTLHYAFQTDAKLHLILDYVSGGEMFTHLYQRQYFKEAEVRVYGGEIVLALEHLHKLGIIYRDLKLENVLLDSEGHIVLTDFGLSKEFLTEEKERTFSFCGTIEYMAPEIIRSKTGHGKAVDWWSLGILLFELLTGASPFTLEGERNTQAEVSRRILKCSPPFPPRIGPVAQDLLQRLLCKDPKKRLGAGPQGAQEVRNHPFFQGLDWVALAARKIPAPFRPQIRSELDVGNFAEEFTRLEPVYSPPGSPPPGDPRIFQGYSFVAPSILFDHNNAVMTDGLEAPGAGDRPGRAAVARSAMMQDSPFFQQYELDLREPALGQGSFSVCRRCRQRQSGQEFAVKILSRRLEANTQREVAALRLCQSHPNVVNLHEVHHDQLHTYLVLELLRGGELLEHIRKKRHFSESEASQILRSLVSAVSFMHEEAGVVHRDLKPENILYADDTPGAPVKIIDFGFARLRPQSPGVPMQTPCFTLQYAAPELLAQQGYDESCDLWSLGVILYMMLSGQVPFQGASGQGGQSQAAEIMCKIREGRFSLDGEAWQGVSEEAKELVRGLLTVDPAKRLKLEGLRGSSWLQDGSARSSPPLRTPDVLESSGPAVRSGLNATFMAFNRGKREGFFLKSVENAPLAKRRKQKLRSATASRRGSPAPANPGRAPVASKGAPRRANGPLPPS
TrkA (h), sequence (P04629 441-796 limits assumed): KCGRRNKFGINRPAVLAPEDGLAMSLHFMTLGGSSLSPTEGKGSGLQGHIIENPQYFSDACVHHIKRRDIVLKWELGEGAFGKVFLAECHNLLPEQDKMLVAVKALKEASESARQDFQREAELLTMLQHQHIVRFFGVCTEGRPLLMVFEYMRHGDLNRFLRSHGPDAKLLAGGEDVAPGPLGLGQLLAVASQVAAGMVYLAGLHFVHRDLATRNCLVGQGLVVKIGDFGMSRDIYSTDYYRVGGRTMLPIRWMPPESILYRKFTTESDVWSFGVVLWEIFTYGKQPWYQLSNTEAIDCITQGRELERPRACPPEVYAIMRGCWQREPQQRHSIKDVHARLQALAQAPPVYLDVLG
PKCδ (h), sequence (Q05655 whole entry, stated change not applied): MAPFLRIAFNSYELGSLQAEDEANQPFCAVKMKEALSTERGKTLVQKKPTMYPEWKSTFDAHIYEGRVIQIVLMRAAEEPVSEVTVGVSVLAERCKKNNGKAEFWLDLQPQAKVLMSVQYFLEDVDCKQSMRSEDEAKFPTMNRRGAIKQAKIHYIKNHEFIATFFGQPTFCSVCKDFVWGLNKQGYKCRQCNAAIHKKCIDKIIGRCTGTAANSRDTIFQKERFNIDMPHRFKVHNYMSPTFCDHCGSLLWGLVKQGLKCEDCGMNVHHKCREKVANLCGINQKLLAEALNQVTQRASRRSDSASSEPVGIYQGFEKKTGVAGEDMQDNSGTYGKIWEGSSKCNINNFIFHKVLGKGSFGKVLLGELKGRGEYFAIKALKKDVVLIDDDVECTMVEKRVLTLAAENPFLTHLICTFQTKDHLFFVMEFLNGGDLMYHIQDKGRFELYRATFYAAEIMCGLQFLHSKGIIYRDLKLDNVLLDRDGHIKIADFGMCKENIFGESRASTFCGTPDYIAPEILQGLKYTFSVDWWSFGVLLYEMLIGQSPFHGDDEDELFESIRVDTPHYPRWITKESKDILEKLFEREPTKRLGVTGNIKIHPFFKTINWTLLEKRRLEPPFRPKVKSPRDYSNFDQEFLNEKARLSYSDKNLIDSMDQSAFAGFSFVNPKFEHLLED
ASK1 (h), sequence (Q99683 649-946 limits assumed): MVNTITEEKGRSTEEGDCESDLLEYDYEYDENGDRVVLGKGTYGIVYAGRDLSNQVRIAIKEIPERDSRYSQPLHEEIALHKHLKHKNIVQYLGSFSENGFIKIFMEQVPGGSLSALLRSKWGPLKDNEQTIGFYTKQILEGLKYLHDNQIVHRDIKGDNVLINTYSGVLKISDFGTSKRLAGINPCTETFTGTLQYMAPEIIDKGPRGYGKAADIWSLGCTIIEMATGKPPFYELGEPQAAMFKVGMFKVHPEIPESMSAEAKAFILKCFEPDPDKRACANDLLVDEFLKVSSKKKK
Rsk2 (h), sequence (P51812 whole entry): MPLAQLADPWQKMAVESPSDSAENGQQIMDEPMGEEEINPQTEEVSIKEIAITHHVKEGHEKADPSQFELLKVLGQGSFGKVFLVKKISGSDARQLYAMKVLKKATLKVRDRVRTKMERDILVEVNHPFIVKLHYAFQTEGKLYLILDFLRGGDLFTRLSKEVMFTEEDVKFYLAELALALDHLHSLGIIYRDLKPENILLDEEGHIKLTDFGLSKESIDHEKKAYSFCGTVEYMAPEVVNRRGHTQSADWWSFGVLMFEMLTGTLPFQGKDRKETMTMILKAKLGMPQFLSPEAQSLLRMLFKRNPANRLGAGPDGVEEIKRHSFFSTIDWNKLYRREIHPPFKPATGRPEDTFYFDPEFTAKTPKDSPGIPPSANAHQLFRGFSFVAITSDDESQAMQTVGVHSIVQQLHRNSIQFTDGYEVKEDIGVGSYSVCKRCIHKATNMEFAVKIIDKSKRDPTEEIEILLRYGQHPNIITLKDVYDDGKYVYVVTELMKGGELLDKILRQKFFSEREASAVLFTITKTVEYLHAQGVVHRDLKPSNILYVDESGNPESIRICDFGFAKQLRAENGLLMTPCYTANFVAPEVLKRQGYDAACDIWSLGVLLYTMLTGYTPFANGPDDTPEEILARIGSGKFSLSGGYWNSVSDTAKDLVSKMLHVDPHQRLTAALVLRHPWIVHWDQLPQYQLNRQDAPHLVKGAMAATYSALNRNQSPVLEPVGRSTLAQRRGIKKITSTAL
Tie2 (h), sequence (Q02763 771-1124 limits assumed): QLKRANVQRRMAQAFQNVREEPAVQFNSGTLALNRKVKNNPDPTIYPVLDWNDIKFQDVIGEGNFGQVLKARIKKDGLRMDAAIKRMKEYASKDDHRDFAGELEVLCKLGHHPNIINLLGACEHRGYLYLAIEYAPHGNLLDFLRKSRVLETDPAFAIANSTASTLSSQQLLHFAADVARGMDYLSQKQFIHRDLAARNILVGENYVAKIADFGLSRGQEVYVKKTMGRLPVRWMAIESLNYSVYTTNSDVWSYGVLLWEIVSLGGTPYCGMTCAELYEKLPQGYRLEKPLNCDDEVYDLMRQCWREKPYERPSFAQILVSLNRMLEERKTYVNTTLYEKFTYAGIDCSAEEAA
FGFR1 (h), sequence (P11362 456-765 limits assumed): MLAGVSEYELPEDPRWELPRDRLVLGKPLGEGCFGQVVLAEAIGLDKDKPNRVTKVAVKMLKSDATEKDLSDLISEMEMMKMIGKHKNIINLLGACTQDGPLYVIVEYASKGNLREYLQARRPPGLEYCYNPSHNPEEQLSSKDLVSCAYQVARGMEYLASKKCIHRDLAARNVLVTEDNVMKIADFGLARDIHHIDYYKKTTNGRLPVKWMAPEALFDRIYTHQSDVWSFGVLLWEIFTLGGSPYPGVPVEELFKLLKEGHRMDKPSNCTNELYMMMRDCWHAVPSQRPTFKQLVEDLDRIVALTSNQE

B1: KAFAKLAARLYRKALARQLGVAA (peptide)
peptide: KAFAKLAARLYRKALARQLGVAA
Profile-1 @ = 100 µm (kinase profiler assay) (CHK1 (h)): 68 | Profile-1 @ = 100 µm (kinase profiler assay) (MEKI (h)): 66 | Profile-1 @ = 100 µm (kinase profiler assay) (JAK3 (h)): 91 | Profile-1 @ = 100 µm (kinase profiler assay) (Tie2 (h)): 8 | Profile-1 @ = 100 µm (kinase profiler assay) (PhKγ2 (h)): 27 | Profile-1 @ = 100 µm (kinase profiler assay) (FGFR1 (h)): 35 | Profile-1 @ = 100 µm (kinase profiler assay) (MSK2 (h)): 30 | Profile-1 @ = 100 µm (kinase profiler assay) (DYRK2 (h)): -10 | Profile-1 @ = 100 µm (kinase profiler assay) (Rsk2 (h)): 6 | Profile-1 @ = 100 µm (kinase profiler assay) (TrkA (h)): 16 | Profile-1 @ = 100 µm (kinase profiler assay) (CKIB (h)): 97 | Profile-1 @ = 100 µm (kinase profiler assay) (ASK1 (h)): 48 | Profile-1 @ = 100 µm (kinase profiler assay) (PKCδ (h)): 24 | Profile-1 @ = 100 µm (kinase profiler assay) (MSK1 (h)): 13
